We go through six molecules from patent US20220380473A1, “ANTI-GAL3 ANTIBODIES AND USES THEREOF” (TrueBinding, Inc., priority 2019, published 2022).

Experiment [1] concerns mouse unilateral ureteral obstruction (UUO) model of kidney fibrosis. The experiment can be described thus: Mouse UUO model of kidney fibrosis (Example 32). In kind it is in vivo. The conditions noted are these: treated one day before UUO; for KIM-1 levels / serum NGAL levels: vs isotype control; for picosirius red staining of kidney, image quantification: isotype 2.65%. The source says: To further evaluate the ability of GAL3-targeted antibodies with the ability to block TIM3-GAL3 assembly to impact fibrosis, we evaluated the impact of humanized IMT001-4 and IMT006-1 in the mouse unilateral ureteral obstruction (UUO) model of kidney fibrosis. Briefly, 8-week-old C57BL/6J male mice were divided into sham, UUO with HuIgG4−, and UUO with HuIMT001-4, HuIMT006-1, and UUO with metformin-treatment. HuIgG4, HuIMT001-4 and HuIMT006-1 were each administered by intraperitoneal route at 10 mg/kg Q2Dx3 whereas metformin (500 mg/kg/day) was administered to mice dissolved in drinking water. In some settings therapeutic antibodies or metformin was administered 1 day before UUO, whereas in other experiments therapeutic antibodies or metformin was administered 1 day after UUO. After 7 days of UUO surgery, mice were sacrificed, left kidney was harvested and fixed with 4% paraformaldehyde for immunohistochemistry (IHC) and blood was collected in Heparin-EDTA tubes for blood biochemistry analysis. Levels of plasma mouse TIM-1/KIM-1/HAVCR were measured using a commercial ELISA kit (Catalog #MKM100; R&D Systems, Minneapolis, Minn.) according to the protocol provided by the manufacturer. Levels of plasma mouse Lipocalin-2/NGAL were measured using a commercial ELISA kit (Catalog #DY1857; R&D Systems, Minneapolis, Minn.) according to the protocol provided by the manufacturer. 5 um sections of fixed kidney specimens were produced and processed for picosirius red staining as described for liver specimens above.
To evaluate the robustness of TIM3-GAL3 blocking antibodies in reducing kidney fibrosis, the ability of mIMT001 to inhibit fibrosis when administered one day after UUO surgery was evaluated. Following UUO surgery and treatment with isotype or control antibodies, kidney specimens were harvested and stained by IHC for Collagen 1a1 (Col1a1), a marker of kidney fibrosis.

Experiment [2] deals with Galectin-3 (Homo sapiens, UniProt P17931). The experiment in a line: SPR (BiacoreT200) binding affinity. The conditions noted are these: 25° C., read-out: hGal-3 KD. As for the experimental part:
GAL3-binding antibodies were evaluated for their binding affinity by SPR. Kinetics experiments were performed on BiacoreT200 at 25° C. in high performance mode. Ligand proteins, purified antibodies were captured onto a CM5 chip coupled with anti-human Fc or anti-mouse Fc antibody, three antibodies at a time onto flow cell #2, 3, and 4, respectively, while flow cell #1 was used as reference. The analyte Galectin-3 in HBS-EP buffer was injected over all four flow cells at concentrations of 100, 50, 25, 12.5, 6.25, 3.125 and 0 nM at a flow rate of 30 μL/min. The complex was allowed to associate and dissociate for 240 and 300 seconds, respectively. The surfaces were regenerated with a 30 second injection of 10 mM Glycine pH 1.7 (flow rate 30 μL/min). The data were fit to a simple 1:1 interaction model using the global data analysis option available within BiacoreT200 Evaluation software V2.0. The affinity of Gal3 monoclonal antibodies was confirmed to be […] 30 nM for all antibodies studied (Table 24.1). Antibodies with affinity less than 2E-7 were selected for further characterization.

Experiment [3] has as its target T1, association of GAL3 and TIM3 (Homo sapiens, UniProt P17931).
T1 construct: full-length human Galectin-3 protein (Acro Biosystems, GA3-H5129); linker-spaced 6-histidine tag; purchased Acro Biosystems GA3-H5129 (Gal3); TM3-H5229 (TIM-3)
The experiment can be described thus: GAL3-TIM3 blocking ELISA (Examples 24, 27). In kind it is binding. The conditions noted are these: for GAL3-TIM3 Blocking @ 3 ug/mL: 3 ug/mL antibody. The protocol:
Positively scoring wells were evaluated for the ability to block association of GAL3 and TIM3. To identify GAL3-targeted antibodies with the ability to block the interaction of GAL3 and TIM3, purified GAL3 and TIM3 proteins were incubated in the presence of GAL3-immunization hybridoma supernatants described above, or without antibody, and protein interaction was evaluated by ELISA. Human Galectin-3 protein (Acro Biosystems, GA3-H5129) was diluted in PBS (Corning, 21-030-CM) to a concentration of 3 μg/ml and added to the wells of a 96-well ELISA plate (Thermo Fisher, 44-2404-21). After incubating the plate at 4° C. overnight, the plate was washed three times with PBST (PBS with 0.05% Tween 20 [VWR, 0777]). The plate was then blocked for an hour with 2% BSA (EMD Millipore, 126609) in PBST at room temperature with gentle rocking. Thereafter, the 2% BSA in PBST was discarded and antibody or inhibitor (3-fold dilutions beginning at 20 μg/ml, 60 μg/ml, or 180 μM) in 2% BSA in PBST was added to the wells. Afterwards, 2 μg/ml of human TIM3 (Aero Biosystems, TM3-H5229) in 2% BSA in PBST was added to the antibody or inhibitor in the wells in a 1:1 ratio. The plate was incubated for an hour at room temperature with gentle rocking. Thereafter, the plate was washed three times with PBST, and 0.3 μg/ml of human TIM3 Biotinylated Antibody (R&D Systems, BAF2365) in 2% BSA in PBST was added to the wells. The plate was incubated for an hour with gentle rocking and then washed three times with PBST. Avidin-HRP (1:2000) was then added to the wells. The plate was incubated at room temperature for an hour with gentle rocking and then washed three times with PBST. TMB substrate (Thermo Scientific, 34029) was then added to each well. The reaction was stopped with 1M HCl (JT Baker, 5620-02) and read using a plate reader (Molecular Devices) at absorbance of 450 nm.
In general terms: ELISA stands for enzyme-linked immunosorbent assay.

Experiment [4] relates to hGal3 peptide. The experiment can be described thus: Gal3 peptide library ELISA (Example 25). In kind it is binding, human. The conditions noted are these: for Gal3 peptide bound: peptide array ELISA; for Epitope Mapping: hGal3 peptide No. bound. As for the experimental part: To identify the epitopes to which Gal3 antibodies with and without Gal3-TIM3 blocking activity bound, a library of 20 amino acid peptides representing portions of Gal3, summarized in Table 24.1, was produced and the ability to bind Gal3 antibodies was evaluated by ELISA.
At least 2 μg/ml of hGal3 peptide in 50 μl of PBS or 0.1 μg/ml of full-length human Gal3 protein (GenScript) and human Galectin-3 protein (Acro Biosystems, GA3-H5129) were diluted in PBS (Corning, 21-030-CM) to concentrations of at least 2 μg/ml or 0.1 μg/ml, respectively, and added to the wells of a 96-well ELISA plate (Thermo Fisher, 44-2404-21). After incubating the plate at 4° C. overnight, the plate was washed three times with PBST (PBS with 0.05% Tween 20 [VWR, 0777]). The plate was then blocked for an hour with 2% BSA (EMD Millipore, 126609) in PBST at room temperature with gentle rocking. Thereafter, the 2% BSA in PBST was discarded and human Galectin-3 hybridoma supernatants or antibodies were diluted in 2% BSA in PBST to concentrations of at least 0.1 μg/ml and added to the wells. The plate was incubated for an hour at room temperature with gentle rocking and then washed three times with PBST. Afterwards, Goat Anti-Mouse IgG-HRP (Jackson ImmunoResearch, 115-036-1461) or Goat Anti-Rat IgG HRP (abcam, ab205720) diluted in 2% BSA in PBST (1:4000) were added to the wells. The plate was incubated for 30 minutes to 1 hour at room temperature with gentle rocking and then washed three times with PB ST. TMB substrate (Thermo Scientific, 34029) was then added to each well. The reaction was stopped with 1M HCl (JT Baker, 5620-02) and read using a plate reader (Molecular Devices) at absorbance of 450 nm.

In experiment [5] the target is human Gal3-His (Homo sapiens, UniProt P17931). The experiment can be described thus: Antibody binning by biolayer interferometry (Gator). In kind it is binding. The conditions noted are these: antibody competition. As for the experimental part:
To determine whether Gal3-binding antibodies with Gal3-TIM3 blocking activity bind to the same or overlapping regions of the Gal3 molecule, antibody binning assays were performed to assess the ability of antibodies to simultaneously bind Gal3. Amine-reactive probes were loaded onto a Gator biosensor (Probe Life, Palo Alto, Calif.), equilibrated in dH20 for 60 seconds, dipped into 100 μl EDC 0.2M/NHS 0.05M activation buffer for 30 seconds, then dipped into a solution of […] human Gal3-His in 10 mM NaOAc buffer, pH 5 until binding was saturated, and quenched in 1 M ethanolamine pH 8.5 for 300 seconds. Following Gal3-His loading, tips were dipped in 20 μg/mL saturating antibody, then successively dipped into 5 μg/mL competing antibody.

Entries after “also recorded” stand apart in the source; their conditions may differ.

Galectin-3, sequence (P17931 whole entry): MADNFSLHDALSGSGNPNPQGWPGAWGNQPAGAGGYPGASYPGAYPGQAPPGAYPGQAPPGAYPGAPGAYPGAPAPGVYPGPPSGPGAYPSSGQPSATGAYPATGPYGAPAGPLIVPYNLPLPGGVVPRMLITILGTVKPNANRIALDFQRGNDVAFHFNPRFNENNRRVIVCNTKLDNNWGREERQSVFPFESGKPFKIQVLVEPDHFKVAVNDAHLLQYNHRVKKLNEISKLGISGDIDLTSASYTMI
T1 sequence (P17931 2-250 limits assumed): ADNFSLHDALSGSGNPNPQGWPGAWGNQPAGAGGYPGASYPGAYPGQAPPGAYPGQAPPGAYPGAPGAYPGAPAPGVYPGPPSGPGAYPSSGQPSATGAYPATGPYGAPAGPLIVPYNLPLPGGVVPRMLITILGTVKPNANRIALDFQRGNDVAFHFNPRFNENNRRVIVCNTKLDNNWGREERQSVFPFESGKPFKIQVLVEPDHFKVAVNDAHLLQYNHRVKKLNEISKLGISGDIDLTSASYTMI
human Gal3-His, sequence (P17931 whole entry): as the sequence (P17931 whole entry) above

Take `CN(C)C(=N)N=C(N)N` [metformin, reference compound]: in experiment [1], the “picosirius red staining of kidney, qualitative” value was “substantial reductions in picosirius red staining”; the KIM-1 levels result is given as “the reduction was not statistically significant”; the “serum NGAL levels” value is “significantly impact NGAL levels”; the “picosirius red staining of kidney, image quantification” value stood at 1.83%.

B1: 13A12.2E5: murine anti-Gal3 antibody (antibody, V domains shown)
VH: QIQLVQSGPELKKPGETVKISCKTSGYKFKTYVMSWVKQAPGKALKWMGWINTYSGVPTYADDFKGRFAFSLETSASTAYLEIINLKNEDTATYFCARDGNYGDPMDYWGQGTSVTVSS
VL: DVVMTQTPLTLSVAIGQPASISCKSSQSLLYTNGKTYLNWLLQRPGQSPKRLIYLLSKLDSGVPDRFSASGSGTDFTLKISRVEAEDLGVYYCLQSTHFPLTFGAGTKLEMK
By Kd is commonly meant the constant that tells how readily two partners part at equilibrium. For B1, the Kd in experiment [2] was 8.2 nM. Further, in experiment [3], the “GAL3-TIM3 Blocking @ 3 ug/mL” value came out at 35%. Besides, the Gal3 peptide bound entry in experiment [4] was “peptide 4; also recorded: peptide 6”.

B2: IMT006-1: humanized anti-Gal3 antibody derived from 4A11.2B5 (antibody, V domains shown)
VH: QVQLVQSGAEVKKPGASVKVSCKASGYSFTNYYMHWVRQAPGQGLEWMGWIYPGSGNTNYNEKFQGRVTMTADTSISTAYMELSRLRSDDTAVYYCSTAPGGFDVWGQGTTVTVSS
VL: DIVMTQTPLSLSVTPGQPASISCKSSKSLLHSDGITYLYWYLQKPGQSPQLLIYRMSNLASGVPDRFSGSGSGTDFTLKISRVEAEDVGVYYCAQMLEFPLTFGQGTKLEIK
modifications: VH of IMT006-1; VL of IMT006-1
notes: humanized anti-Gal3 antibody derived from 4A11.2B5
Broadly, the IC50 is the concentration that gives 50% inhibition. In experiment [3] (titration series, purified GAL3 and TIM3), B2 returned an IC50 of 26.5 nM. In experiment [1], the “picosirius red staining of kidney, qualitative” value is “substantial reductions in picosirius red staining”; the KIM-1 levels entry is reported as “significantly reduced”; the “serum NGAL levels” value is “significant reductions in serum NGAL levels”; the “picosirius red staining of kidney, image quantification” value is 1.26%.

B3: 13G4.2F8: murine anti-Gal3 antibody (antibody, V domains shown)
VH: QVQLQQPGAELVKPGASVKLSCKASGYTFTSYWMHWVKQRPGQGLEWIGMIHPNSGSTDYNEKFKNKATLNVDKSSSTAYIQLSSLTSEDSAVYYCTRWGIYYYARDYWGQGTTLTVSS
VL: DIVMTQSQKFMSTSVGERVSITCKASQNVGTNVAWYQQKAGQSLELLIYGASNRHTGVPDRFTGSGSGTDFTLTITNVQSEDMTNYFCEQYSNFPLTFGAGTKLELK
With B3, the Kd in experiment [2] worked out at 2.53 nM. Further, in experiment [3], the “GAL3-TIM3 Blocking @ 3 ug/mL” value was 0%. The “Epitope Mapping” value in experiment [4] is listed as “Non-linear”.

B4: 2D10.2B2: murine anti-Gal3 antibody (antibody, V domains shown)
VH: QVQLQQSGPELVKPGASVKISCKASGYTFTDYYINWVKQRPGQGLEWIGWIYPGSNDTKYNEKFKGKATLTVDTSSSTAYMQLGSLTSEDSAVYFCANYFGCSGWFFDVWGTGTTVTVSS
VL: DIVMTQAAFSNPVTLGTSASISCRSSKSLLHSDGITYLYWYLQRPGQSPQLLIYRMSNLASGVPDRFSGSGSGTDFTLRISRVEAEDVGVYYCAQMIEFPLTFGAGTILELK
B4: the Kd in experiment [2] came to 0.753 nM. Further, the “GAL3-TIM3 Blocking @ 3 ug/mL” value in experiment [3] worked out at 86%. Further, in experiment [4], the “Epitope Mapping” value is given as 6 and the Gal3 peptide bound entry was “peptide 6”. The Bin in experiment [5] turned out to be 3.

B5: 846.2H3: murine anti-Gal3 antibody (antibody, V domains shown)
VH: QIQLVQSGPELKKPGETVKISCKASGYTFTNYGMNWVKQAPGKGLKWMGWINTYTGEPSYADDFKGRFAFSLETSASTAYLQINNLKNEDMATYFCARWGGYDGDYYAMDYWGQGTSVTVSS
VL: NIMMTQSPSSLAVSAGEKVTMSCKSSQSVLYSSNQKNYLAWYQQKPGQSPKLLIYWASTRESGVPDRFTGSGSGTDFTLTISSVQPEDLAVYYCHQYLSSLTFGAGTKLELK
Turning to B5, the Kd in experiment [2] is 10.2 nM. In addition, the “assembly of GAL3 and TIM3, % of levels observed in the absence of a GAL3-targeted antibody” value in experiment [3] (3 μg/mL (FIG. 24)) was “less than 5%”. Moreover, the “GAL3-TIM3 Blocking @ 3 ug/mL” value in experiment [3] was 100%. Also, in experiment [4], the “Epitope Mapping” value is listed as 6 and the Gal3 peptide bound result is “peptide 6”. In experiment [5], this molecule had a Bin of 3.
